Laboratory results taken from PMC6199259, “Structural and functional insights into the interaction and targeting hub TMD0 of the polypeptide transporter TAPL” (Scientific Reports, 2018).
One block for each molecule: values may come before it.

Key:
[1] = molecular target: T1, coreTAPLmV (Homo sapiens, UniProt Q9NP78); conditions: 3 mM ATP, 3 uM RRYC(fluorescein)KSTEL, 3 mM MgCl2, pH 7.5, 37 °C, 15 min; with cf-TMD0-His co-reconstituted
T1 construct: gene ABCB9

[2] = molecular target: T2, TmrAB (Thermus thermophilus, UniProt Q72J04+Q72J05); conditions: 3 mM ATP, 3 uM RRYC(fluorescein)KSTEL, 3 mM MgCl2, pH 7.5, 37 °C, 15 min; with cf-TMD0-His co-reconstituted
T2 construct: gene TT_C0976

[3] = molecular target: cf-TMD0-His (M1 – P142), cell-free expressed (human) (UniProt Q9NP78); experiment: SEC-MALS; 400 µg cf-TMD0-His on TSK-GEL G3000SWXL, 4 °C; 25 mM Na acetate, 300 mM NaCl, 0.7% c6-DHPC, pH 5.0; three-detector method (UV, refractive index, light scattering)
[4] = molecular target: cf-TMD0-His S28C, MTSL labeled (human) (UniProt Q9NP78); experiment: PELDOR (DEER) spectroscopy; MTSL labeled single cysteine cf-TMD0-His in c6-DHPC with 15–20% deuterated glycerol, frozen; Q-band (33.4 GHz), 50 K; modulation depth and distance distribution by Tikhonov regularization
[5] = molecular target: cf-TMD0-His S138C, MTSL labeled (human) (UniProt Q9NP78); experiment: as above

Molecule: Nc1ncnc2c1ncn2[C@@H]1O[C@H](COP(=O)(O)OP(=O)(O)OP(=O)(O)O)[C@@H](O)[C@H]1O [ATP]
- ATP-dependent peptide transport in proteoliposomes, fluorescence [1]: Functional reconstitution of coreTAPLmV as well as TmrAB into liposomes was demonstrated by ATP-dependent peptide transport
- ATP-dependent peptide transport in proteoliposomes, fluorescence [2]: Functional reconstitution of coreTAPLmV as well as TmrAB into liposomes was demonstrated by ATP-dependent peptide transport

- stoichiometry N [3]: 2
Molecule: cf-TMD0-His (M1 – P142), cell-free expressed (from UniProt Q9NP78 1-142) (domain or fragment)

- stoichiometry N [4]: 2
Molecule: cf-TMD0-His S28C, MTSL labeled (from UniProt Q9NP78 1-142) (domain or fragment)

- stoichiometry N [5]: 2
Molecule: cf-TMD0-His S138C, MTSL labeled (from UniProt Q9NP78 1-142) (domain or fragment)
